Measurements as given in patent US20200405879A1 (published 2020).

Key:
CD22 = CD22 (human, UniProt P20273 20-847); experiment: cell-based or functional assay; design: unit not given beside the values
CD19 = biological target: T1, CD19 (human, UniProt P15391 20-556); experiment: cell-based or functional assay; design: unit not given beside the values
T1 sequence (looked up): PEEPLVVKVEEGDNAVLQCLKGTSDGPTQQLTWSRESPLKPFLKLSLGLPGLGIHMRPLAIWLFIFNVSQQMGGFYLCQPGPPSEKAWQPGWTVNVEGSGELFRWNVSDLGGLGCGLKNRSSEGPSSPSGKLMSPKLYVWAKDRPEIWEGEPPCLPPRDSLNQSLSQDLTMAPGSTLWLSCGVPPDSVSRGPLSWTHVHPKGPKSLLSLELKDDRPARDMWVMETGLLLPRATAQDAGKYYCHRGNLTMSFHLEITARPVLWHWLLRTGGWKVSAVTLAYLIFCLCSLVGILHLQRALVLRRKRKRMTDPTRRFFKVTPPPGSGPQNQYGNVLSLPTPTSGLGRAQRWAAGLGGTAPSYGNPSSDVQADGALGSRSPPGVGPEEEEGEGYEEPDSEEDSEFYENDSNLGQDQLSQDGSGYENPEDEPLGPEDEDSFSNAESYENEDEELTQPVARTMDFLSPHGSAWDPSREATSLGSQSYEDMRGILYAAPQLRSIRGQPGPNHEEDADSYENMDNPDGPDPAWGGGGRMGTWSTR

B1: ADCx22 (antibody, human IgG1, kappa, V domains shown)
VH: QVQLVQSGAEVKKPGSSVKVSCKASGYTFTSYWLHWVRQAPGQGLEWIGYINPRNDYTEYNQNFKDKATITADESTNTAYMELSSLRSEDTAFYFCARRDITTFYWGQGTLVTVSS
VL: DIQLTQSPSSLSASVGDRVTMSCKSSQSVLYSANHKNYLAWYQQKPGKAPKLLIYWASTRESGVPSRFSGSGSGTDFTFTISSLQPEDIATYYCHQYLSSWTFGQGTKVEIKR
modifications: PBD drug-linker on heavy chain interchain cysteine Cys220 (EU numbering) = position 219 of SEQ ID NO. 15
CD22
  EC50, in vitro cytotoxicity (MTS cell viability) on Ramos cells, 4 days: 0.0133

B2: ADCx19 (antibody, V domains shown)
VH: QVQLVQPGAEVVKPGASVKLSCKTSGYTFTSNWMHWVKQAPGQGLEWIGEIDPSDSYTNYNQNFQGKAKLTVDKSTSTAYMEVSSLRSDDTAVYYCARGSNPYYYAMDYWGQGTSVTVS
VL: EIVLTQSPAIMSASPGERVTMTCSASSGVNYMHWYQQKPGTSPRRWIYDTSKLASGVPARFSGSGSGTSYSLTISSMEPEDAATYYCHQRGSYTFGGGTKLEIK
modifications: pyrrolobenzodiazepine (PBD) dimer warhead attached to the antibody via a cleavable linker; DAR 2+/-0.3; attachment residues not stated
CD19
  EC50, in vitro cytotoxicity (MTS cell viability) on Ramos cells, 4 days: 0.000239
